What all share (settings): both partners purified
Experiment [1] deals with T1, MDA5(R337G) (human, UniProt Q9BYX4 1-1025, R337G, Cy3 on a peptide (Cy3-CLPETGG) ligated by sortase; used unlabelled in some experiments).
T1 sequence (looked up): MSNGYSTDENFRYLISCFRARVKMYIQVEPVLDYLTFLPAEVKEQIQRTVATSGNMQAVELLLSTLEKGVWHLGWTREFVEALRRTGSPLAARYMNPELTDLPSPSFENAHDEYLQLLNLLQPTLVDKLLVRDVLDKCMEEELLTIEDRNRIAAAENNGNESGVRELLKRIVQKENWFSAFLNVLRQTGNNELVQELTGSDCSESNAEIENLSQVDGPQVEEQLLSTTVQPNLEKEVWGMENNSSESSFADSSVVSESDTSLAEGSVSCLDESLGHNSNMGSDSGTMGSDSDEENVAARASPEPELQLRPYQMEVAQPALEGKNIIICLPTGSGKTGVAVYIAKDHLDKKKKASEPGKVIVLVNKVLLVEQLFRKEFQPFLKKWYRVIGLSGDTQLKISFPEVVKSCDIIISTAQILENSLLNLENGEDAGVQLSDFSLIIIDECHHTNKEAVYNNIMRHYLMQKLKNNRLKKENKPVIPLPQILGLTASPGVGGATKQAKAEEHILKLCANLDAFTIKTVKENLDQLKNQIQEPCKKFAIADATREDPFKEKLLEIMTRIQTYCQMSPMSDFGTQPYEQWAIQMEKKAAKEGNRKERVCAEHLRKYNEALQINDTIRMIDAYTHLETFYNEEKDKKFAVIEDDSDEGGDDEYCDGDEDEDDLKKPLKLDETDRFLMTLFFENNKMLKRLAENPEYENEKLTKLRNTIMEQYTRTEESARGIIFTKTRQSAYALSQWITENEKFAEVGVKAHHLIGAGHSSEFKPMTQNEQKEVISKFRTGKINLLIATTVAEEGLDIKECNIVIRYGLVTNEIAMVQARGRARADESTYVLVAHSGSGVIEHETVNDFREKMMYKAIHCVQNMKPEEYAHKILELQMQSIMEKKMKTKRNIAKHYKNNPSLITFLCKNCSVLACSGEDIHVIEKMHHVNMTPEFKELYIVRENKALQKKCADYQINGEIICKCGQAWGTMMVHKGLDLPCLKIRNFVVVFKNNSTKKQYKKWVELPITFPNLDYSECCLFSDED
Briefly: single-molecule TIRF imaging (smTIRF) on dsRNA; 60 nM Cy3-LGP2 with or without 60 nM unlabelled MDA5, MDA5(R337G) or MDA5(M854K) on stretched, surface-anchored 11.6-kb dsRNA; Imaging Buffer (20 mM Tris-HCl pH 7.5, 100 mM NaCl, 1.5 mM MgCl2, 2 mM ATP unless stated otherwise), 23 °C.

The target in experiment [2] is T2, MDA5(M854K) (human, UniProt Q9BYX4 1-1025, M854K, Cy3 on a peptide (Cy3-CLPETGG) ligated by sortase; used unlabelled in some experiments).
T2 sequence (looked up): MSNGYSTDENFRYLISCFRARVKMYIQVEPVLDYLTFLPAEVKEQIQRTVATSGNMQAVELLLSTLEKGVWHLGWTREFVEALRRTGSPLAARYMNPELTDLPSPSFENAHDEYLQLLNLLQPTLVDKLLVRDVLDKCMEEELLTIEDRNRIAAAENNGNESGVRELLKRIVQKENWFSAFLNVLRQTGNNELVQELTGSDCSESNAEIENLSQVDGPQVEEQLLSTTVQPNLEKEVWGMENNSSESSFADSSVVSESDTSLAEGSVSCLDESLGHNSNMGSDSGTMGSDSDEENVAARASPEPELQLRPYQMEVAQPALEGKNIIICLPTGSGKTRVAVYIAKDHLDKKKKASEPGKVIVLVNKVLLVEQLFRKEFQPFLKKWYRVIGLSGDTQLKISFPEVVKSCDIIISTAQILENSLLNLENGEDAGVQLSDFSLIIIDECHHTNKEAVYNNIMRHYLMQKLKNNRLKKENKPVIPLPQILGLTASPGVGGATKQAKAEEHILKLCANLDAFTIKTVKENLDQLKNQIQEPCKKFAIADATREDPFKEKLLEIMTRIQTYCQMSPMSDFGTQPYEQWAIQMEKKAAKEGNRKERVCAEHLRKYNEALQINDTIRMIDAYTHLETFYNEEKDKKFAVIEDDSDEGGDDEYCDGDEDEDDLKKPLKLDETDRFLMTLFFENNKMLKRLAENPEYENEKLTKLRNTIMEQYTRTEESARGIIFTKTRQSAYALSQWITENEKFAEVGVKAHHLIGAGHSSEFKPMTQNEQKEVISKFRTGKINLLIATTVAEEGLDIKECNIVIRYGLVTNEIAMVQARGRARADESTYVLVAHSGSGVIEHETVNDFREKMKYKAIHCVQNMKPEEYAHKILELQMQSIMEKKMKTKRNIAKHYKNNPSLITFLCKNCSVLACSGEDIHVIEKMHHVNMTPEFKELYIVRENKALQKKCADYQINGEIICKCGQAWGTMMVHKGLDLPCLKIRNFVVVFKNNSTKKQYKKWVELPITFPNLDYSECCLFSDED
The description is as above.

Experiment [3] concerns the target T1, MDA5(R337G). Briefly: single-molecule TIRF imaging (smTIRF) on dsRNA; MAVS-CARD recruitment without LGP2: Cy3-MDA5, Cy3-MDA5(R337G) or Cy3-MDA5(M854K) (100 nM) and AF647-MAVS-CARD (100 nM) on 11.6-kb dsRNA; Imaging Buffer with 2 mM ATP, 23 °C.
In experiment [4] the target is T2, MDA5(M854K). The description is as above.

B1: human LGP2 (natural protein, UniProt Q96C10 1-678, looked up)
chain: MELRSYQWEVIMPALEGKNIIIWLPTGAGKTRAAAYVAKRHLETVDGAKVVVLVNRVHLVTQHGEEFRRMLDGRWTVTTLSGDMGPRAGFGHLARCHDLLICTAELLQMALTSPEEEEHVELTVFSLIVVDECHHTHKDTVYNVIMSQYLELKLQRAQPLPQVLGLTASPGTGGASKLDGAINHVLQLCANLDTWCIMSPQNCCPQLQEHSQQPCKQYNLCHRRSQDPFGDLLKKLMDQIHDHLEMPELSRKFGTQMYEQQVVKLSEAAALAGLQEQRVYALHLRRYNDALLIHDTVRAVDALAALQDFYHREHVTKTQILCAERRLLALFDDRKNELAHLATHGPENPKLEMLEKILQRQFSSSNSPRGIIFTRTRQSAHSLLLWLQQQQGLQTVDIRAQLLIGAGNSSQSTHMTQRDQQEVIQKFQDGTLNLLVATSVAEEGLDIPHCNVVVRYGLLTNEISMVQARGRARADQSVYAFVATEGSRELKRELINEALETLMEQAVAAVQKMDQAEYQAKIRDLQQAALTKRAAQAAQRENQRQQFPVEHVQLLCINCMVAVGHGSDLRKVEGTHHVNVNPNFSNYYNVSRDPVVINKVFKDWKPGGVISCRNCGEVWGLQMIYKSVKLPVLKVRSMLLETPQGRIQAKKWSRVPFSVPDFDFLQHCAENLSDLSLD
modifications: Cy3 or Cy5 on a peptide (GGGC-Cy3/Cy5) ligated by sortase; used unlabelled in some experiments
As to B1, the binding result in the experiment with MDA5(R337G) [1] and with MDA5(M854K) [2] was “binds” throughout.

B2: MAVS-CARD(D23K/E26K/E80K) (domain or fragment, UniProt Q7Z434 1-97, looked up)
chain: MPFAEDKTYKYICRNFSNFCNVKVVKILPYLPCLTARDQDRLRATCTLSGNRDTLWHLFNTLQRRPGWVEYFIAALRGCKLVDLADEVASVYQSYQP
modifications: Alexa Fluor 647 (SNAP-Surface Alexa Fluor 647 substrate) on the SNAP-tag
notes: pET47b plasmid from the Sun Hur lab; also called AF647-MAVS-CARD; not shown: SNAP-tag, C-terminal, kept
For B2, the binding result with MDA5(R337G) [3] and in the experiment with MDA5(M854K) [4] was “binds” each time.

The values are drawn from publication PMC12589613, “ATP-dependent one-dimensional movement maintains immune homeostasis by suppressing spontaneous MDA5 filament assembly” (Cell Research, 2025).
